# Data as given in patent publication US20060024722A1.
# Target: oncofetal fibronectin (human) (UniProt P02751)
# Test: lateral flow sandwich assay (FDC-6 latex conjugate / immobilised goat anti-fibronectin), TLiIQ reflectance reader
# Sequence of UniProt P02751 (P02751 32-2477): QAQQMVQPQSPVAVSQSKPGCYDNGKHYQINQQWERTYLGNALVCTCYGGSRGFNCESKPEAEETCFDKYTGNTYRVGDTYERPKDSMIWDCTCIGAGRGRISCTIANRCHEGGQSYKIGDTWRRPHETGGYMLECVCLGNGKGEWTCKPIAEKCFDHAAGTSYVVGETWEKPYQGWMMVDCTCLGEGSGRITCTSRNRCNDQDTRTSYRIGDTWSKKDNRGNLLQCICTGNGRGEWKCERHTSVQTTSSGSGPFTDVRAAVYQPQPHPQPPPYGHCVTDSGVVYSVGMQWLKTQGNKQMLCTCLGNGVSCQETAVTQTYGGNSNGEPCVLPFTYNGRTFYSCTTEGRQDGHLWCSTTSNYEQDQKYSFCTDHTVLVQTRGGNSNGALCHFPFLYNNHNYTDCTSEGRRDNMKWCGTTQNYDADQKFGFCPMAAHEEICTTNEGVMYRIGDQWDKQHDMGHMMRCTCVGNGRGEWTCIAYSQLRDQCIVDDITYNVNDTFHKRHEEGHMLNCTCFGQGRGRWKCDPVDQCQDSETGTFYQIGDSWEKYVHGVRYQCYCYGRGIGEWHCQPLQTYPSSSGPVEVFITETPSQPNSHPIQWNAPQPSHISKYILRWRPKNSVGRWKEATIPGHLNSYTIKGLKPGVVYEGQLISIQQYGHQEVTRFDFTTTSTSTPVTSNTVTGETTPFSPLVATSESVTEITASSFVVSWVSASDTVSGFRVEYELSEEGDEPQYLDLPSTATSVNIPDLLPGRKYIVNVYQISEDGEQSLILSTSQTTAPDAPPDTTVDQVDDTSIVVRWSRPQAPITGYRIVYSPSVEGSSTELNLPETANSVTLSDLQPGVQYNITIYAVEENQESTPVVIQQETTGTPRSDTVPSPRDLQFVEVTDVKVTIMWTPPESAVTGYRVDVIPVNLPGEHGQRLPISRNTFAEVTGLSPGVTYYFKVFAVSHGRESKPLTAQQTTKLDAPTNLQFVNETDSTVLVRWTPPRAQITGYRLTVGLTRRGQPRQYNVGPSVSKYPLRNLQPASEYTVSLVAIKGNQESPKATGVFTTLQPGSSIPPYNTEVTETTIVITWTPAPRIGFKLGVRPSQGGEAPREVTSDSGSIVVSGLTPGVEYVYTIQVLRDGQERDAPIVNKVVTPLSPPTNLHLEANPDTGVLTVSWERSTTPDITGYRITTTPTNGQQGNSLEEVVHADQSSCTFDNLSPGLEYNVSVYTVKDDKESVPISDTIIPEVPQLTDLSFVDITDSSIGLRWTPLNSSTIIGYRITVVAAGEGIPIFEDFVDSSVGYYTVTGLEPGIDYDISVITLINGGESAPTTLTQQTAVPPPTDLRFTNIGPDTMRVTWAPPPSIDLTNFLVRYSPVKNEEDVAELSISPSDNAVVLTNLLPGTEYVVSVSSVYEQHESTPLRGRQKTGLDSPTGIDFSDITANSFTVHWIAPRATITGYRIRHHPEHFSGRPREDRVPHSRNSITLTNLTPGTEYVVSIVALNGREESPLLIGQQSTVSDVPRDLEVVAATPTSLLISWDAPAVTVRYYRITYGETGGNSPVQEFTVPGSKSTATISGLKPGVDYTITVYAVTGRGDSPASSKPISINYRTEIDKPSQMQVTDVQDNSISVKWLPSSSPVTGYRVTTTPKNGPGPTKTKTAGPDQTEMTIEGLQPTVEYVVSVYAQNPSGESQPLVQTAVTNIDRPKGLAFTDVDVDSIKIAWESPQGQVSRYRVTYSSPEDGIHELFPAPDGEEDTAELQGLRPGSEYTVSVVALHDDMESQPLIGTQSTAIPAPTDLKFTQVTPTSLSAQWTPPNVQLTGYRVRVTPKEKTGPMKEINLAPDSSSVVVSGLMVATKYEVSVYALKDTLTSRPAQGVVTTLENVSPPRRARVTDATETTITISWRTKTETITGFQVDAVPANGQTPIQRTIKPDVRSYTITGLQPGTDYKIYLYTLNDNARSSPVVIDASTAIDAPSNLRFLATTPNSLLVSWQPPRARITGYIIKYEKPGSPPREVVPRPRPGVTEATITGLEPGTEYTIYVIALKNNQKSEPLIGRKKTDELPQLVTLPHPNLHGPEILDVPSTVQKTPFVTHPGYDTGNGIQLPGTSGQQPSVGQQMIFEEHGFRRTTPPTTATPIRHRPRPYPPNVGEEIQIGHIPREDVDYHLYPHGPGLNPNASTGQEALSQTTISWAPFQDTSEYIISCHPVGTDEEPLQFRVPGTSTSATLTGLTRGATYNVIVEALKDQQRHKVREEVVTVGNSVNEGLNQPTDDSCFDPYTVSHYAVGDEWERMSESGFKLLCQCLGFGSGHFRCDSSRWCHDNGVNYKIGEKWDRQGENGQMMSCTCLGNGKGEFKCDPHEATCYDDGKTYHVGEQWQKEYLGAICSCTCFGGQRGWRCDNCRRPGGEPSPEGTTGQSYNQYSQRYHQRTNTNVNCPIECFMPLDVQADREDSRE
substance,measurement,value
monoclonal antibody FDC-6 produced by hybridoma ATCC HB 9018,reflectance signal at 50 ng/ml oncofetal fibronectin (reflectance signal),0.315
